Data from the supplement of paper PMC10567573.

B1: MIA2 (parent)
chain: SVIEPVQESSFRSRKIAVEDENDL

Variants of: B1
Assay: protein stability index of a GFP-peptide fusion (GPS, HEK-293T) (PSI 1-6); higher = more stable
Details: c terminus: a fixed tail appended
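Also: lentivirally expressed fusions sorted by FACS into six bins by GFP to DsRed ratio, PSI derived from sequencing read proportions per bin multiplied by bin number.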

Variant	protein stability index
SVIEPVQESSKRSRKIAVEDENDL	5.4
SVIEPVQESSWRSRKIAVEDENDL	5.44
SVIEPVQESSARSRKIAVEDENDL	4.79
SVIEPVQESSDRSRKIAVEDENDL	5.92
SVIEPVQESSYRSRKIAVEDENDL	5.26
SVIEPVQESSRRSRKIAVEDENDL	5.67
SVIEPVQESSNRSRKIAVEDENDL	5.62
SVIEPVQESSQRSRKIAVEDENDL	4.71
SVIEPVQESSERSRKIAVEDENDL	5.84
SVIEPVQESSPRSRKIAVEDENDL	5.08
SVIEPVQESSMRSRKIAVEDENDL	5.19
SVIEPVQESSSRSRKIAVEDENDL	5.26
SVIEPVQESSHRSRKIAVEDENDL	5.37
SVIEPVQESSVRSRKIAVEDENDL	5.16
SVIEPVQESSLRSRKIAVEDENDL	5.46
SVIEPVQESSGRSRKIAVEDENDL	5.28
SVIEPVQESSCRSRKIAVEDENDL	4.9
SVIEPVQESSIRSRKIAVEDENDL	5.15
SVIEPVQESSTRSRKIAVEDENDL	5.86
SVIEPVQEGSFRSRKIAVEDENDL	5.08
SVIEPVQENSFRSRKIAVEDENDL	5.09
SVIEPVQEISFRSRKIAVEDENDL	5.31
SVIEPVQEMSFRSRKIAVEDENDL	4.37
SVIEPVQECSFRSRKIAVEDENDL	5.09

Variant	protein stability index
SVIEPVQEASFRSRKIAVEDENDL	5.35
SVIEPVQEFSFRSRKIAVEDENDL	4.64
SVIEPVQELSFRSRKIAVEDENDL	4.48
SVIEPVQERSFRSRKIAVEDENDL	5.45
SVIEPVQEWSFRSRKIAVEDENDL	4.86
SVIEPVQEPSFRSRKIAVEDENDL	5.66
SVIEPVQEVSFRSRKIAVEDENDL	5.19
SVIEPVQEESFRSRKIAVEDENDL	5.05
SVIEPVQEKSFRSRKIAVEDENDL	5.44
SVIEPVQEYSFRSRKIAVEDENDL	5.25
SVIEPVQEQSFRSRKIAVEDENDL	5.35
SVIEPVQEHSFRSRKIAVEDENDL	4.98
SVIEPVQEDSFRSRKIAVEDENDL	5.35
SVIEPVQETSFRSRKIAVEDENDL	5.19
SVIFPVQESSFRSRKIAVEDENDL	4.73
SVIIPVQESSFRSRKIAVEDENDL	4.62
SVIWPVQESSFRSRKIAVEDENDL	3.74
SVIHPVQESSFRSRKIAVEDENDL	4.44
SVIQPVQESSFRSRKIAVEDENDL	4.7
SVISPVQESSFRSRKIAVEDENDL	5.25
SVIMPVQESSFRSRKIAVEDENDL	4.9
SVICPVQESSFRSRKIAVEDENDL	5.08
SVILPVQESSFRSRKIAVEDENDL	4.62
SVIGPVQESSFRSRKIAVEDENDL	5.01

Variant	protein stability index
SVIVPVQESSFRSRKIAVEDENDL	4.71
SVINPVQESSFRSRKIAVEDENDL	5.21
SVIRPVQESSFRSRKIAVEDENDL	5
SVIAPVQESSFRSRKIAVEDENDL	5.68
SVIPPVQESSFRSRKIAVEDENDL	5.37
SVIDPVQESSFRSRKIAVEDENDL	5.01
SVIKPVQESSFRSRKIAVEDENDL	5.03
SVIYPVQESSFRSRKIAVEDENDL	4.64
SVITPVQESSFRSRKIAVEDENDL	5.35
SVIEPVQESNFRSRKIAVEDENDL	5.28
SVIEPVQESKFRSRKIAVEDENDL	5.54
SVIEPVQESCFRSRKIAVEDENDL	5.34
SVIEPVQESFFRSRKIAVEDENDL	4.74
SVIEPVQESGFRSRKIAVEDENDL	5.78
SVIEPVQESHFRSRKIAVEDENDL	5.77
SVIEPVQESAFRSRKIAVEDENDL	5.49
SVIEPVQESMFRSRKIAVEDENDL	4.89
SVIEPVQESDFRSRKIAVEDENDL	5.54
SVIEPVQESYFRSRKIAVEDENDL	4.81
SVIEPVQESPFRSRKIAVEDENDL	5.02
SVIEPVQESEFRSRKIAVEDENDL	5.27
SVIEPVQESIFRSRKIAVEDENDL	4.28
SVIEPVQESQFRSRKIAVEDENDL	5.67
SVIEPVQESWFRSRKIAVEDENDL	4.72

Variant	protein stability index
SVIEPVQESTFRSRKIAVEDENDL	4.48
SVIEPVQESVFRSRKIAVEDENDL	5.28
SVIEPVQESLFRSRKIAVEDENDL	4.72
SVIEPVQESRFRSRKIAVEDENDL	5.02
SVIEPVWESSFRSRKIAVEDENDL	5.13
SVIEPVLESSFRSRKIAVEDENDL	5.29
SVIEPVMESSFRSRKIAVEDENDL	5.04
SVIEPVAESSFRSRKIAVEDENDL	4.21
SVIEPVIESSFRSRKIAVEDENDL	4.93
SVIEPVFESSFRSRKIAVEDENDL	4.46
SVIEPVTESSFRSRKIAVEDENDL	5.32
SVIEPVEESSFRSRKIAVEDENDL	5.25
SVIEPVSESSFRSRKIAVEDENDL	5.46
SVIEPVCESSFRSRKIAVEDENDL	3.93
SVIEPVNESSFRSRKIAVEDENDL	4.82
SVIEPVHESSFRSRKIAVEDENDL	5.34
SVIEPVKESSFRSRKIAVEDENDL	4.98
SVIEPVDESSFRSRKIAVEDENDL	5.25
SVIEPVRESSFRSRKIAVEDENDL	4.92
SVIEPVYESSFRSRKIAVEDENDL	5.21
SVIEPVPESSFRSRKIAVEDENDL	5.49
SVIEPVVESSFRSRKIAVEDENDL	5.28
